Data: patent US6060451, “Thrombin inhibitors based on the amino acid sequence of hirudin” (The National Research Council of Canada, dated 2000)
Non-standard residues stand in square brackets, D forms with d.

target: human α-thrombin (human, UniProt P00734); experiment: inhibition of thrombin-mediated hydrolysis of Tosyl-Gly-Pro-Arg-AMC (fluorogenic amidolytic assay)

| Binder | Ki |
| --- | --- |
| Ac-[dF]PR[(CH2)4CO][NH‑CH2‑CH:CH‑CH2‑CO]DFEPIPL-OH [P183 (SEQ ID NO:5)] | 300 nM |
| Ac-[dF]PR[(CH2)4CO][NH‑CH2‑CH:CH‑CH2‑CO][NH‑CH2‑CH:CH‑CH2‑CO]DFEPIPL-OH [P184 (SEQ ID NO:6) (BCH-1710)] | 3.5 nM |
| Ac-[dF]PR[(CH2)4CO][NH‑CH2‑CH:CH‑CH2‑CO][NH‑CH2‑CH:CH‑CH2‑CO][NH‑CH2‑CH:CH‑CH2‑CO]DFEPIPL-OH [P185 (SEQ ID NO:7)] | 3.2 nM |
